These results are taken from CN110420334A, “一种药物缀合物和提高药物分子半衰期的方法” (Jiangnan University, priority 2019, dated 2019).

Read-outs that look alike come from different tables or passages of the source. Non-standard residues stand in square brackets, D forms with d. No end group written: not given here. pGlu = O=C1CC[C@@H](C(=O)O)N1

The target of one series is T1, LHRH受体 (Homo sapiens, UniProt P30968).
T1 construct: MCF7(LHRH高表达)，UCI107(LHRH不表达); endogenous in cells; host or cells: MCF7 (positive), UCI107 (negative)
T1 sequence (P30968 1-328): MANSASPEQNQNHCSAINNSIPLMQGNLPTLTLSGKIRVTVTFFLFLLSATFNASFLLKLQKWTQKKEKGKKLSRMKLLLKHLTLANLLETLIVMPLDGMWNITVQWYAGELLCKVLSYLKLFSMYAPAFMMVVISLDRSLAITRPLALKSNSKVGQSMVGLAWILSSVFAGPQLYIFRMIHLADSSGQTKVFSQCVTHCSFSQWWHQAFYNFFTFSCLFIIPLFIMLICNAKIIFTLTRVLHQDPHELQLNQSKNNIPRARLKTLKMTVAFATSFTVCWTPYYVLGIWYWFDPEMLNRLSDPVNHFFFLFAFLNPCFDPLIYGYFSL
Kind of series: Competitive flow cytometry against fluorescent anti-LHRH receptor antibody (Example 4). Format: binding. Particulars: MCF7 (LHRH high), 250nM, on ice 1h.

For series [1] the following is noted: mouse, in vivo.
Another series deals with T2, CD13 (Homo sapiens, UniProt P15144).
T2 construct: HUVEC(CD13高表达)，MCF7(CD13不表达); endogenous in cells; host or cells: HUVEC (positive), MCF7 (negative)
Kind of series: Competitive flow cytometry against fluorescent anti-CD13 antibody (Example 5). In kind it is binding. Particulars: HUVEC (CD13 high), 250nM, on ice 1h.

T2 sequence (P15144 whole entry): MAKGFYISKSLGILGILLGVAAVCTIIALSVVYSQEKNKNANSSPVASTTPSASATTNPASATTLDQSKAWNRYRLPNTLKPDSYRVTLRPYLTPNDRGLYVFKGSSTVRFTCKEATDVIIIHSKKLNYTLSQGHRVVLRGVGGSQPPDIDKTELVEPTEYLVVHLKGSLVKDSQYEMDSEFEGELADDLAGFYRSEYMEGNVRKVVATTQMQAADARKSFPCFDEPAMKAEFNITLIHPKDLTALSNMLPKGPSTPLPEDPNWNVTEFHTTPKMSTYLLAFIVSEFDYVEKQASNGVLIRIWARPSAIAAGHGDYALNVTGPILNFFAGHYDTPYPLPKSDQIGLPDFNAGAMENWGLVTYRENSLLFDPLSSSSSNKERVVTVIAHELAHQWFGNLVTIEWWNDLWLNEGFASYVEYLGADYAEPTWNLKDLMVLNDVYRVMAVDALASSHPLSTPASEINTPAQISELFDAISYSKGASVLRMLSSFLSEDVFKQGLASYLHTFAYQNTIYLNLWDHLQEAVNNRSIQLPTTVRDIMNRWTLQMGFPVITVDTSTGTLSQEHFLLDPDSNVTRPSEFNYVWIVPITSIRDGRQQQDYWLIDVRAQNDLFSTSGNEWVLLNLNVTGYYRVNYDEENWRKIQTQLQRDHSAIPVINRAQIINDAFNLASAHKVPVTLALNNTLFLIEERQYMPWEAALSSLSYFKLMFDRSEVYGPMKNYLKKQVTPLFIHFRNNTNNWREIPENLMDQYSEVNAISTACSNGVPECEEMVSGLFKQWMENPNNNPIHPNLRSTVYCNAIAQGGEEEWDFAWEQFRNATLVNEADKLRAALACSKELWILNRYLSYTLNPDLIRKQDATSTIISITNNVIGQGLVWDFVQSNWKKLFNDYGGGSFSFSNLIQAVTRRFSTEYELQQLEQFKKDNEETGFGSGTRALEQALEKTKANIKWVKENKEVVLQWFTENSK

On to “Glp-His-Trp-Ser-Tyr-D-Lys-Leu-Arg-Pro-Gly-NH2 (chain 1 [pGlu]HWSY; chain 2 [dK]LRPG-NH2; numbers in words are those of the source; also: chains 1 and 2 are one continuous chain (Tyr-D-Lys peptide bond)) [LHRH]”, for which the “competitive inhibition of anti-LHRH receptor antibody binding to LHRH receptor” value in the series with LHRH受体 is listed as “竞争性抑制”. The serum half-life is reported as 2.2 min in series [1] and 2.6 min in series [1] (iv).

With “NGR-DNP: cyclic NGR peptide (chain GGGCNGRC) coupled with DNP by amide condensation (not fully specified (bridges); cysteine pairing not given here; also: DNP conjugated by amide condensation, position not given here)”, in the series with CD13, the “competitive inhibition of anti-CD13 antibody binding to HUVEC” value is on record as “竞争性抑制”.
